Consider three molecules from article doi:10.1101/823146 (bioRxiv, 2019).

The target of experiment [1] is 6xHis-tagged RcsF (E. coli) (UniProt P69411). As to the kind of experiment: BLI.
Experiment [2] has as its target Untagged BamA (biolayer interferometry) (E. coli), P0A940. Nature of the experiment: BLI. As to conditions: remark: other sources report otherwise.
The target of the next experiment is BamACDE complex (E. coli, UniProt P0A940;P0A903;P0AC02;P0A937). As to the kind of experiment: native gel or EMSA. For orientation: Mobility shift assays separate free from complexed probe on a gel.
Sequence of BamACDE complex (P0A903 25-344, chain 2 of 3): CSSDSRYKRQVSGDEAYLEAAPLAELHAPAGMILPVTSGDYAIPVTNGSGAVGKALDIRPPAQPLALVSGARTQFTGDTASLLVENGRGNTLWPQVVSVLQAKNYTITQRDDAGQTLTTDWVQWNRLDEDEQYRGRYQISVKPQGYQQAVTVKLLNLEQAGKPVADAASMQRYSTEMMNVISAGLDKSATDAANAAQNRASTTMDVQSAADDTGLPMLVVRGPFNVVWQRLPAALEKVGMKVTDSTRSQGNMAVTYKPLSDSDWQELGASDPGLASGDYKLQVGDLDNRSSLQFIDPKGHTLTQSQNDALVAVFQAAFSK
Sequence of BamACDE complex (P0AC02 20-245, chain 3 of 3): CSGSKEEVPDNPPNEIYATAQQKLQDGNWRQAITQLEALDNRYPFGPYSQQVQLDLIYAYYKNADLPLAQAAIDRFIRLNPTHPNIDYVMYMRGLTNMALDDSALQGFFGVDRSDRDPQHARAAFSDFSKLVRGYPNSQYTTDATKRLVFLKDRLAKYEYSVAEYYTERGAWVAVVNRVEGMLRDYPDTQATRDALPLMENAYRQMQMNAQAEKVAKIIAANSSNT
Sequence of BamACDE complex (P0A937 20-113, chain 4 of 3): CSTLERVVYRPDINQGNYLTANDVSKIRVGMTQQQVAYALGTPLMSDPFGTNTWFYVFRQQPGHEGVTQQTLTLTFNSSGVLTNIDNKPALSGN
The target in another experiment is BamABDE complex (E. coli, UniProt P0A940;P77774;P0AC02;P0A937). Nature of the experiment: native gel or EMSA.
Sequence of BamABDE complex (P77774 20-392, chain 2 of 3): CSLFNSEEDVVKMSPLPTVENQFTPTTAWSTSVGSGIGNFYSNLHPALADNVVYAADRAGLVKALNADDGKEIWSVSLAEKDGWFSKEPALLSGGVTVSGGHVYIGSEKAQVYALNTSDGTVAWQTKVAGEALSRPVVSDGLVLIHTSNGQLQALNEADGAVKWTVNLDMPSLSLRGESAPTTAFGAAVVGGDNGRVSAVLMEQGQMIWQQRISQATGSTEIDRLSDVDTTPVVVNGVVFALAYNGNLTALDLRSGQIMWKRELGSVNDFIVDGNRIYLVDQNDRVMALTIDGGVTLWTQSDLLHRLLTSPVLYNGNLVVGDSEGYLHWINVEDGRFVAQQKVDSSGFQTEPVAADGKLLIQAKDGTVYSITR
Sequence of BamABDE complex (P0AC02 20-245, chain 3 of 3): as the sequence (P0AC02 20-245, chain 3 of 3) above
Sequence of BamABDE complex (P0A937 20-113, chain 4 of 3): as the sequence (P0A937 20-113, chain 4 of 3) above
Experiment [3] addresses BamABCDE holocomplex (BAM) (E. coli, UniProt P0A940;P77774;P0A903;P0AC02;P0A937). As to the kind of experiment: native gel or EMSA.

Sequence of BamABCDE holocomplex (BAM) (P77774 20-392, chain 2 of 4): as the sequence (P77774 20-392, chain 2 of 3) above
Sequence of BamABCDE holocomplex (BAM) (P0A903 25-344, chain 3 of 4): as the sequence (P0A903 25-344, chain 2 of 3) above
Sequence of BamABCDE holocomplex (BAM) (P0AC02 20-245, chain 4 of 4): as the sequence (P0AC02 20-245, chain 3 of 3) above
Sequence of BamABCDE holocomplex (BAM) (P0A937 20-113, chain 5 of 4): as the sequence (P0A937 20-113, chain 4 of 3) above

In turn, “Untagged BamA (biolayer interferometry) (from UniProt P0A940 21-810) (natural protein; other documents disagree on this pair)” gave an equilibrium dissociation constant (Kd) in experiment [1] of 420 nM.

B1: 6xHis-tagged RcsF, P69411 16-134 (natural protein)
chain: CSMLSRSPVEPVQSTAPQPKAEPAKPKAPRATPVRIYTNAEELVGKPFRDLGEVSGDSCQASNQDSPPSIPTARKRMQINASKMKANAVLLHSCEVTSGTPGCYRQAVCIGSALNITAK
modifications: here or on the partner: biotin (EZ-Link NHS-PEG4-biotin) where BamA was immobilised on streptavidin tips
The molecule B1 displayed a Kd in experiment [2] of 350 nM.

B2: RcsF (overexpressed from pSC216) (natural protein)
chain: CSMLSRSPVEPVQSTAPQPKAEPAKPKAPRATPVRIYTNAEELVGKPFRDLGEVSGDSCQASNQDSPPSIPTARKRMQINASKMKANAVLLHSCEVTSGTPGCYRQAVCIGSALNITAK
modifications: lipid anchor (outer membrane lipoprotein)
As to B2, the binding result (with BamACDE complex; with BamABDE complex; in experiment [3]) was “binds” throughout.

As usually defined, the Kd is the constant that tells how readily two partners part at equilibrium. Higher therefore signals lower affinity.
